# Experimental data as given in article PMC11956251 (BMC Microbiology, 2025).
# T1: His-FtsZ fusion protein (Streptococcus suis SC19, UniProt A0A0H3MXZ7 1-409)
# T1 sequence (looked up): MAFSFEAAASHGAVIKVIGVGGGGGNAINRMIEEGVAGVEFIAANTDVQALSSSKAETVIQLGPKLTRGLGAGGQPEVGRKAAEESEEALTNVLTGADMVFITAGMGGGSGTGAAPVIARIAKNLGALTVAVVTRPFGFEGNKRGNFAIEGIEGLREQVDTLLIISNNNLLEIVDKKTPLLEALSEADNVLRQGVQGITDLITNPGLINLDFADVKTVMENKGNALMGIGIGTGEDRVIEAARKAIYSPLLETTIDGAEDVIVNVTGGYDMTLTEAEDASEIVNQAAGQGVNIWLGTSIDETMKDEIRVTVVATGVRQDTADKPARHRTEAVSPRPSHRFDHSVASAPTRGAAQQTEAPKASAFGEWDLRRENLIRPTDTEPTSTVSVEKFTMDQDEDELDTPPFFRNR
# Target: T1, His-FtsZ fusion protein
# Test: BLI
binder,measurement,value
"SepF labeled with biotin (natural protein, Streptococcus suis SC19, UniProt A4VTL1 1-187, looked up, biotin (biotin labeling kit; sites not stated)) MALKDTFKNLFNYFEVDEVNEVEEQADAYSMPNDRPKMRVANTTVAPVREQQPKVETRREARSESQLQRLHERQQELMTNNNEKEIVKTTIDIKFPKRYEDAPEMVNLLLDNASILIDFQYMSEQQARRCLDYLDGARSVLSGNLKKVSNTMWLLTPVNVTVNIEELRNAGTTTGVADSNFEFDIKR",Kd,0.67 nM
